Source: patent US20110243927A1

Molecular target: β5 integrin (human, ITGB5) (human)
Assay: cell-based or functional assay

% Inhibition of cell growth, SKBr3 cells, SRB assay, 5 days, antibody alone at 0.08 µg/ml (trastuzumab 0): 30%
% Inhibition of cell growth, SKBr3 cells, SRB assay, 5 days, antibody alone at 0.4 µg/ml (trastuzumab 0): 43.7%
% Inhibition of cell growth, SKBr3 cells, SRB assay, 5 days, antibody alone at 2 µg/ml (trastuzumab 0): 52.6%
% Inhibition of cell growth, SKBr3 cells, SRB assay, 5 days, antibody alone at 10 µg/ml (trastuzumab 0): 71.5%
% Inhibition of cell growth, SKBr3 cells, SRB assay, 5 days, antibody alone at 50 µg/ml (trastuzumab 0): 76.2%
Inhibition of cell proliferation, 184-A1 (normal breast cell line), 10 µg/ml, 4 days, vs isotype control: 0%
Inhibition of cell proliferation, 231 (breast), 10 µg/ml, 4 days, vs isotype control: 23%
Inhibition of cell proliferation, 435 (breast), 10 µg/ml, 4 days, vs isotype control: 33.7%
Inhibition of cell proliferation, 453 (breast), 10 µg/ml, 4 days, vs isotype control: 24.9%
Inhibition of cell proliferation, 468 (breast), 10 µg/ml, 4 days, vs isotype control: 44.3%
Inhibition of cell proliferation, A172 (brain), 10 µg/ml, 4 days, vs isotype control: 90%
Inhibition of cell proliferation, A549 (lung), 10 µg/ml, 4 days, vs isotype control: 60 to 80%
Inhibition of cell proliferation, BT-474 (breast), 10 µg/ml, 4 days, vs isotype control: 0%
Inhibition of cell proliferation, CaoV3 (ovary), 10 µg/ml, 4 days, vs isotype control: 45.9%
Inhibition of cell proliferation, Colo205 (colon), 10 µg/ml, 4 days, vs isotype control: 27.2%
Inhibition of cell proliferation, Du145 (prostate), 10 µg/ml, 4 days, vs isotype control: 17.1%
Inhibition of cell proliferation, Du-4475 (breast), 10 µg/ml, 4 days, vs isotype control: 2.13%
Inhibition of cell proliferation, H358 (lung), 10 µg/ml, 4 days, vs isotype control: 30.1%
Inhibition of cell proliferation, H460 (lung), 10 µg/ml, 4 days, vs isotype control: 39.7%
Inhibition of cell proliferation, HCC-1419 (breast), 10 µg/ml, 4 days, vs isotype control: 20.9%
Inhibition of cell proliferation, HCC-1954 (breast), 10 µg/ml, 4 days, vs isotype control: 39.3%
Inhibition of cell proliferation, HCT8 (colon), 10 µg/ml, 4 days, vs isotype control: 33%
Inhibition of cell proliferation, HCT15 (colon), 10 µg/ml, 4 days, vs isotype control: 58.7%
Inhibition of cell proliferation, HMEC C (normal human mammary epithelial cells), 10 µg/ml, 4 days, vs isotype control: 0%
Inhibition of cell proliferation, MCF7 (breast), 10 µg/ml, 4 days, vs isotype control: 49.1%
Inhibition of cell proliferation, PC3 (prostate), 10 µg/ml, 4 days, vs isotype control: 11.2%
Inhibition of cell proliferation, SK-N-SH (brain), 10 µg/ml, 4 days, vs isotype control: 40%
Inhibition of cell proliferation, SKBr3 (breast), 10 µg/ml, 4 days, vs isotype control: 26.2%
Inhibition of cell proliferation, SW480 (colon), 10 µg/ml, 4 days, vs isotype control: 30.2%
Inhibition of cell proliferation, SW620 (colon), 10 µg/ml, 4 days, vs isotype control: 48.5%
Inhibition of cell proliferation, SW626 (ovary), 10 µg/ml, 4 days, vs isotype control: 29.7%
Inhibition of cell proliferation, SW1783 (listed under colon), 10 µg/ml, 4 days, vs isotype control: 26.6%
Inhibition of cell proliferation, Skov3 (ovary), 10 µg/ml, 4 days, vs isotype control: 15.1%
Inhibition of cell proliferation, T47D (breast), 10 µg/ml, 4 days, vs isotype control: 30.9%
Substance: anti-β5 integrin subunit monoclonal antibody KN52 (eBiosciences)
